According to the DeepSol protein solubility set:

Assay: soluble on expression in E. coli; label from the status in PepcDB or PDB records

Row | Sequence | soluble on expression in E. coli
1 | MSLILASLVRYYRRLATETDETGNPKVPSYGFSEEKIGWILVLDKEGRLKTVVPNLTADKKPQPKLMSVPRPEKRTSGIKPNFLWDKTAYALGVEANKNKAEAKEKPFTPSEKTFEAFKQYHLDLLQNSEDEGLQALCRFLQNWQPAHFAAENLPAEMLDSNTAFSLEKPTALIHKREAAQTLWAGCLKSDEALESLCLISGDTAPIARLHPAIKGVFGGQSSGGSIISFNKEAFSSFGKEQGANAPVSEQSAFAYTTALNYLLRRENNHCLTIGDASTVFWAEADDIVDEGHHHHHH | not soluble
2 | MSLILIKNVSYYIDNNLNVHENCDILIEKVENSEIKLTTGKNLLEKLNLNQNDLKIISGEKKCAIPGLYNAHTHVPMTLLRGIADDMILQDWLNQKIWPNEAKLNKNDVYYGSLLGCLEMLRFGVTSFNEMYFFSEEILKATKEIGLNAQVSYPIIDFGTPEEQSIDKLLTSAESFVKNNVGEKNIKVGIAPHAPYTCSEETYQKCSEISNDYNVNMHTHVSETRYEVVELENKIGMRPVEYLEKIGVLNEKLHAAHCVWITKDEAKKLAKNNAKVLHCPTSNMKLASGGVMPLFELLEYGADISVGTDGPASNNNLDILKEMKMTSLLHKAHRWDPTVAGIDTVLKMGINSESIEIKNNDIILIDLDSAHLRPFNNIKSNIVYSAFGNDVDTVIVGGNILLENKKYKFSETFISNIYKNIQKITEKFEEGHHHHHH | not soluble
3 | MSLINDLRTVPAALDRLVRQLPDHTALIAEDRRFTSTELRDAVYGAAAALIALGVEPADRVAIWSPNTWHWVVACLAIHHAGAAVVPLNTRYTATEATDILDRAGAPVLFAAGLFLGADRAAGLDRAALPALRHVVRVPVEADDGTWDEFIATGAGALDAVAARAAAVAPQDVSDILFTSGTTGRSKGVLCAHRQSLSASASWAANGKITSDDRYLCINPFFHNFGYKAGILACLQTGATLIPHVTFDPLHALRAIERHRITVLPGPPTIYQSLLDHPARKDFDLSSLRFAVTGAATVPVVLVERMQSELDIDIVLTAYGLTEANGMGTMCRPEDDAVTVATTCGRPFADFELRIADDGEVLLRGPNVMVGYLDDTEATAAAIDADGWLHTGDIGAVDQAGNLRITDRLKDMYICGGFNVYPAEVEQVLARMDGVADAAVIGVPDQRLGEVGRAFVVARPGTGLDEASVIAYTREHLANFKTPRSVRFVDVLPRNAAGKVSKPQLRELGEGHHHHHH | not soluble
4 | MSLINFGIIGAGNIANRFADSLSHFKDANLYAVACRGIEKAAAFQRKHPCQLIYDDYDELLSNKDIDIVYIAVPHGFHYLWISKALKKGKAVLCEKPATLNAEQMKSVQKLAEAKNIFFMEAMKSRFTPAYQEIKTIINNGEIGKIISIDSSFCREISKKTATYHFQPIQGGCLLDIGIYNVALTEDFAKTLPKVEVLENKMDISGVESYTKAKLLFPNLSATIECAFDRNKQTEATIKGEKGQIEIKNFHRAESFIVKTSSGTKNYHIAYEQDDFHGEIAHVIQCYGKNKTESNNMPISDSVNCALIIEKIKNQIPELAEGHHHHHH | soluble
5 | MSLINLDVWIDLTNAPHVHYFCQLIKKFEKEGIEYLLTFRDSGNLAKLVEIYNFVGKCIGKHGNTLKDKLIFYAERVIGLTELISNVKPKVAIAKHSVELPRVAFGLNIPVIFVVDNEHAEAQNKLTLPLADEIIKPIATDENKLKEFGGRNFISFEGTCEVANVNSRLKGYYPIDNEILKKLGICDDNPTIVMRPCPNSSYCNGHKDILPKIIEKLQKRIDCNIVVFPRDEHQKEIYREVNAIVPKETIDALSLLYNSDFMIGAGGTMNRESAILGIPTVSCYPQELLGVDKYLIEKDRMIHTNDIKEIINYVEDNLGKRMGVIELEDPTDLMFERVCNYLKEGHHHHHH | soluble
6 | MSLINRFSVPLLETSTIDLANVASNKIEPETVLTNARILSTYSDRILKDKELWIFKGRIACIKPSGSYKEFFQMDKSKIYEVNNNILAPGLIDPHMHIESSMMTGCAYAEAALLNGTTTIFCDSHEIGNVCDTDGIEWMLQDCRESPISIFLTLPSTIPATNKYLETAGGDLTDKKTAILFDKWPEIKGLGEKMDFVSVCEGNERSHSIISETLKRNLPVSGHVFGREFVAAYAASGITDTHEAEDKLFTNDLLDAGLWIFLRGGNPKTPWNSIKEAIKVITESEASTKRICVCTDDRDADDLFNFGLDWVVRQANTLGINNTTAWSMGSLHPATRFNIDRDYGALGHSRRADIVMINDNLEVLNTWLGGHLAVENKKITSLIDKQLSENRYQYPKRAYNTVILPKKINFIPDMPKESEFKINVIKTELPGIMTFKETIHIKEGHHHHHH | soluble
7 | MSLIPKFRAWDTYEKEMLENVTPLFDDSNSMIAIITDFQIKGSPGTSEIEIGSYDTTFNWDEFPYVIMQSTGLKDKNGVEIFEGDILVYDAPKKYAHRRSMHEIAYADGRFFWEFLDLVFCQSNILYRDGYLVIGNIHENPELLEGNEGHHHHHH | soluble
8 | MSLIQIENQTVSGIPFLHIVKEENRHRAVPLVIFIHGFTSAKEHNLHIAYLLAEKGFRAVLPEALHHGERGEEMAVEELAGHFWDIVLNEIEEIGVLKNHFEKEGLIDGGRIGLAGTSMGGITTLGALTAYDWIKAGVSLMGSPNYVELFQQQIDHIQSQGIEIDVPEEKVQQLMKRLELRDLSLQPEKLQQRPLLFWHGAKDKVVPYAPTRKFYDTIKSHYSEQPERLQFIGDENADHKVPRAAVLKTIEWFETYLEGGSHHHHHH | soluble
9 | MSLIRDMQLSRFSIPFAAPIRVGGQELNKRDGLLVAVRDDQGHTGWGEAAPLPGLDTISLDQCQGELCPIRKAFADQALNWDSFSLTAPMMGLCPEIPGLNPISAFGVESALAWLGLCSGQWGIAGADELGIAVNGLFVPSPDPDRLPAQAKQLKASGFSTVKIKIGRMDSDDEIRQILELDSLFNHKLALRLDANRSLDFAQYQSYFEALKHLNIEYVEEPLKPEYDFFEAAQIPWPLALDESLESYANLDEPFPKSLGAVILKPGSFQGVHGMAQAMEHLHTQGIKTVLSSSFNNTMGMSMLGLLANLYAPETAHGLDTLKYFQPSDLSLGLSIAKGRMAIPVDLFGGGLNLASGLMEEIAEGHHHHHH | soluble
10 | MSLITVVIIDDDPFVTKSLQTILESTKEIRVLGIGHCAKDALVLYETHRPDVLLTDIRMPKQTGIDAAKEILAKFPKAILLLLTTFKDEEYIREAFSIGVKGYLIKQNLQAIIPSVKSAYNGQAVFGNEIIETFTQMMKNKPTIDSHAYASFSERELAIIKEVAAGKNNKEIADALYLSDGTVRNYISQLLEKLDLRDRTQLAIYFYQHLQEGHHHHHH | not soluble
11 | MSLIVKFCGFKTESDIKKIKKLEVDAVGFIHYPDSKRHVSLKQLKYLAKIVPDHIEKVVVVVNPQMSTIKRIINQTDINTIQLHGNESIQLIRNIKKLNSKIRIIKAIPATRNLNNNIQKYKDEIDMFIIDTPSITYGGTGQSFDWKLLKKIKGVDFLIAGGLDFEKIKRLEIYSFGQCGYDISTGIESHNEKDFNKMTRILKFLKGDEGHHHHHH | not soluble
12 | MSLIYSGKFRIGVQDEAALQMLHDPEKLGPCLPGVSSFERNDDGYSCKVRLDVSSMGSSYLSKISGKLAFSYLDSENRTIHVQGKGRIAGSSISFDLFISVNGGELIWKIDVNYGILIKMMGEEKIRDVTQANIDRSVKCLSSVLCQEGHHHHHH | soluble
13 | MSLKAAVLHGTNDMRFEDIEIKPCESDEVKIKVMAAGICGSDPPRVLKHWKYPVPAIPGHEFSGVIAEVGKDVKNVKVGDRVVAIPFIPCNECEYCKRGLFSLCDDHGMLGAKSFGAFAEYVNIKATNVLPIGDMDFEDAAMIEPLAVAMHGVLNIGVQVGDTVAVMGSGTMGQLVIQGLKIAGAGTIIAVDISDNKLRESKELGADIIINAKDINPVEKIKELTGGKGVDIALECAGSKITQEQCLLITKKKSKIGFLGIAYSDITLSEEAFENIFRKELELKGFWNSYSAPFPGQEWTKGINLVNEGKIKLKEMVSHRFSLEDTYKAFEMIRDRKEEFNKILILPQGVEGHHHHHH | soluble
14 | MSLKANFYKNRVCLNVLAGSVDNAADIYDAAEGHVLVGVLSKNYPDVDTAVEDMKKYSEVTNNAVSVGLGAGDPNQSMMVSLISQHVQPQHINQVFTGVATSRALAGQDKSIVNGLISPTGTVGMVKISTGPLSSRSEDAIVPVETAIAMLKDMGGSSVKYFPMGGLETREEFACVAKACADKDFWLEPTGGIDLENYEEIMQIALDAGVSKIIPHIYSSIIDKATGNTRPEDVKTLLDMTKKLLN | soluble
15 | MSLKDINIGVVLPLTGTVAAYGQDVFNGIELANKLQPKLSNGDVIKLITIDTKGDKLETSNGVNRLIATDKVLGIIGEATTPNTIQAISIAEEKKIPLIAPVASGDKLLDKKKYASRVCFKDSFQGDKFATYVSKDLGLKNAVIIIDQSNVYSLGLARAFENSFKNNGGKIIKKLVINSGDKDFRAVVSQLKSLNPDFVYMPIYHPEAALIARQARQIGFDKLLVAGDGVNNQTFIDLGGSAVNGVIFTDSFDYNSPSTQLGKDFVAAYEKVKGTKELPAFSAMGADAYFVMLNAMNACVDNLSSECINSKIHQTKDFQAVGGVISIDESGNAIRSVVIKEIQNQKQNYKTIINEGHHHHHH | soluble
16 | MSLKEANLLIDLRGEPGINCNGFCKFCYFRKVNKNNPQPFGCRYCQFTVGCDYCMYSVREINGDFIPLPFALMELQSSLLFKRYSKVNLTAGGDVSCYPQLEELCKAINNIGLKIHLGYTSGKGFDNVEIAKNLVDYGVDEVTFSVFSTNPKLRKEWMNDKNAETALKCLRYFCENCEVHCAIIVIPGVNDGEELKKTVSDLVDWGANAVILMRFANSEEQGLILGNAPLIEGIKPHSVEEFKNIVDEIHNEFGDYIRVTGTPLHDPVAGTPFALAKEENSHILERLKDKINGEATIITGNVAYPFLKKIFDETSVNVVKVNKDIADLITAKDLEKLDLKDVKETVFIPPKAFVHDRVAEEILRRDGVDRIVVRGVEQLTLDGEVSGIYTREEALKFEIEAFEELIGMINFFGMKKQEGHHHHHH | soluble
17 | MSLKERFSPKMLSDITGVSIRTLHYYHEKGLLVPQQMSANGYRYYNVQDISKLQYILFLKELDLTLKQIQIYFEGDSDFRTKILHDNFYHIVKKRDRLNDIICTLEHHFHQDNEEIEVTTMQNFNLNEQYEKEAASKYGDTHYYQAYKDKQKSKDESEQQNHFEEINKQLNMFFDDMNQLYLNKVSILEASGKIKKLLCILKEQVPNCDNQFLEYIAQIYIEDERFVKFINKQRERGLNLYISDAIKTFIKEGHHHHHH | soluble
18 | MSLKFMYSALLGNPVEHSISDELFEYLNHNIGVLDEYKHKKILVDSVCLEDKIKHLINDPKCIGLNITLPYKREVMRYIDNLDRVAEITGSVNNIYKSGNIITGTNTDWKGIYNTLVFFNISHITKCCVLGTGGTARAAIFALQKLQISPTVVYREPISENTRSLIKSFPDLKYITYKELADQQILNDMEIIINTTPVGMINYEESLPINFDHLDNVNYKDKYFMDVVFNPLHTKLHEYFGKKGAKIIDGLWVLIFQGIEAFSLWSDKINDGKYFFSKDDVVLIHTFLEGKIKGKEGHHHHHH | soluble
19 | MSLKGRVAVRTVDAIPQTFAINGIFRISRGSKTSAQVIAVSIAESGYIGRGECVPYARYGETIESVMDQIRSMTPAIEAGMDLSELQSAMAPGAARNAVDCALWDLRAQKTRQSLASVIELGHELQPVLTAFTISLDAPAAMGKAAAVHEHLPILKLKLGGDGDLERVRAVRAAAPHARLMVDANEAWSIDHLRAFAPEFAAMGVELIEQPLPADADDFLKSFNSPVPLAADESCRTLMSLSKIVGKYEIANIKLDKAGGLTEALSLQAAARASGLGTMVGCMVATSLSMAPGIILAQRADVVHLDGPLLLAEDRTPSLRYSGATLYPPEPEVWGGEGHHHHHH | soluble
20 | MSLKIDSIIFDLDGTLWNSIEGVCEAWKVVLKRHSNINKIITPKDIKASMGLQIDEIGKLLFPEEDEKMQLQLMNECCDEEKLYLGEHGGKLFAKLEPTLNKLSQKYKLFIVSNCEDGYIQSFFKAHGLNKYFTDFECSGVTGLSKGENNKLIIKRNSLKNPVYVGDTLKDFESAKIANIPFVYARYGFGDVNEYDYVIDSFEEMLTLDEGHHHHHH | soluble
